Assay [1] has as its target Clostridioides difficile transferase B component, CDTb(45-876), activated with trypsin (Clostridioides difficile) (UniProt O32739). The assay can be described thus: SEC. (SEC sorts molecules by how far they enter the pores of the column.)
For assay [2] the target is unchanged. Briefly: SDS-PAGE of SDS-resistant oligomers.

Broadly, the stoichiometry N is the number of molecules, sites or subunits per partner or assembly.

The substance “Clostridioides difficile transferase B component, CDTb(45-876), activated with trypsin (from UniProt O32739 45-876) (natural protein)” had a stoichiometry N in assay [1] of 7. In addition, the fold oligomer formed with 2.5 M ethanol against water in assay [2] worked out at 7.5 fold.

The values above are taken from article doi:10.1101/2025.05.06.652354.
